{"source": "paper PMC12525494", "key": {"[1]": {"target": "ST2 receptor on Raw 264.7 cells (mouse (endogenous in Raw 264.7)) (UniProt P14719)", "sequence (P14719 27-567)": "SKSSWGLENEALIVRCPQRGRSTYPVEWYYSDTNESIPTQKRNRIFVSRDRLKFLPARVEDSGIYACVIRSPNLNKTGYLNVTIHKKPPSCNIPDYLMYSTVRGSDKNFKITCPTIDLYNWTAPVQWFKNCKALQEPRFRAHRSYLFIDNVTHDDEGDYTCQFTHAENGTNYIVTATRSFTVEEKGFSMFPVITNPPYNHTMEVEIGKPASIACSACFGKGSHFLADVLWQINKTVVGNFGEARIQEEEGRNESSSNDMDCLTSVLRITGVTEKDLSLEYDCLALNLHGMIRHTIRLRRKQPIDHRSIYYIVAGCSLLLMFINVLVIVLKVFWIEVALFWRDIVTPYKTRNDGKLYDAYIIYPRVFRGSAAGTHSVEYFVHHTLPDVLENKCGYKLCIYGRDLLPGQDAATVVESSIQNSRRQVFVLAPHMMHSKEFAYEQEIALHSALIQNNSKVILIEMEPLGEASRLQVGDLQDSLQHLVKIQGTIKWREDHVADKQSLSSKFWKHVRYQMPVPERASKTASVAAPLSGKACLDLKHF"}, "[2]": {"target": "ST2 receptor on Raw 264.7 cells (mouse (endogenous in Raw 264.7)) (UniProt P14719)", "remark": "listed apart in the source"}}}
{"substance": "immunotoxin IL-33αS (murine IL-33 fused to the ribotoxin α-sarcin) (from UniProt P00655 28-177)", "values": [{"measurement": "Viability (%) on Raw 264.7 cell line, 1 µM protein, 72 h", "setting": "[1]", "value": 40, "unit": "%"}, {"measurement": "MTT viability of Raw 264.7 cells, IC50 at 72 h", "setting": "[2]", "value": 300, "unit": "nM"}]}
